Patent US20230002500A1 (BEIGENE, published 2023)

T1: recombinant OX40 protein with a His tag (Cat: 10481-H08H, Sino Biological) (UniProt P43489 29-216)
T1 construct: Bought protein; not shown: His tag
T1 sequence (looked up): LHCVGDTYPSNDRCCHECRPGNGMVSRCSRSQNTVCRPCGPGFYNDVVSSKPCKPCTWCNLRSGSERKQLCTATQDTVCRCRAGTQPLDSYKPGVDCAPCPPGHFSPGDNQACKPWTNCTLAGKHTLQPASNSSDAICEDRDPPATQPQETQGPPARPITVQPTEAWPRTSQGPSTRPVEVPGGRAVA

T2: full-length human OX40 expressed on HuT78 cells (HuT78/OX40) (human, UniProt P43489 29-277)
T2 sequence: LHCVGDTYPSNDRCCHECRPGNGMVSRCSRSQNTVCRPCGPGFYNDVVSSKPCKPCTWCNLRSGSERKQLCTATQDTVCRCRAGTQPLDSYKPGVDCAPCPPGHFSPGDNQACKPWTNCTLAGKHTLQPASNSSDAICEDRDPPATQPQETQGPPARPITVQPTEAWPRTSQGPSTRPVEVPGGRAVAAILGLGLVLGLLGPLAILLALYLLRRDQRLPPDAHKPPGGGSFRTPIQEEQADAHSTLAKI


Experiments:
[1] = target: T1, recombinant OX40 protein with a His tag …; assay: SPR (BIAcore T-200), antibody captured by anti-human IgG, OX40-His flowed; Test 1
Excerpt: (§1) The anti-OX40 antibodies were characterized for their binding kinetics and affinity by SPR assays using BIAcore™ T-200 (GE Life Sciences). Briefly, anti-human IgG antibody was immobilized on an activated CM5 biosensor chip (Cat: BR100530, GE Life Sciences). An antibody with human IgG Fc region was flowed over the chip surface and captured by anti-human IgG antibody. Then a serial dilution of recombinant OX40 protein with a His tag (Cat: 10481-H08H, Sino Biological) was flowed over the chip surface and changes in surface plasmon resonance signals were analyzed to calculate the association rates (ka) and dissociation rates (kd) by using the one-to-one Langmuir binding model (BIA Evaluation Software, GE Life Sciences). The equilibrium dissociation constant (KD) was calculated as the ratio kd/ka.

[2] = target: T2, full-length human OX40 expressed on …; assay: cell-based or functional assay
[3] = target: T1, recombinant OX40 protein with a His tag …; assay: SPR (BIAcore T-200), antibody captured by anti-human IgG, OX40-His flowed; Test 2
Excerpt: as §1

[4] = target: T1, recombinant OX40 protein with a His tag …; assay: Biacore SPR (set-up not named on the sheet; by Example 4 antibody captured, OX40-His flowed)

koff [1] [s⁻¹]	kon [1] [M⁻¹ s⁻¹]	ADCC, LDH release, NK92MI/CD16V effector cells and HuT78/OX40 target cells, EC50 [2] [µg/mL]	IL-2 production of HuT78/OX40 cells co-cultured with HEK293/OS8Low-FcγRI cells (ELISA), EC50 [2] [ng/mL]	koff [3] [s⁻¹]	kon [3] [M⁻¹ s⁻¹]	koff [4] [s⁻¹]	kon [4] [M⁻¹ s⁻¹]	Binder
0.00161	161000	–	–	–	–	–	–	445-3 IgG4 (445-3 with the Fc domain of human IgG4 with S228P and R409K mutations) (antibody, V domains shown) VH: QVQLVQSGAEVKKPGSSVKVSCKASGYKFTSYIIHWVRQAPGQGLEWMGYINPYNEGTRYNQKFQGRVTLTADKSTSTAYMELSSLRSEDTAVYYCARGYYGSSYAMDYWGQGTTVTVSS VL: DIQMTQSPSSLSASVGDRVTITCRASQGISNYLNWYQQKPDGAIKLLIYDASTLYSGVPSRFSGSGSGTDFTLTISSLQPEDFATYYCQQYSKLPYTFGGGTKVEIK
0.00167	182000	0.027	0.06	0.00159	163000	0.00148	174000	humanized anti-OX40 monoclonal antibody 445-3 (antibody, V domains shown, Human IgG1 wild type format) VH: QVQLVQSGAEVKKPGSSVKVSCKASGYKFTSYIIHWVRQAPGQGLEWMGYINPYNEGTRYNQKFQGRVTLTADKSTSTAYMELSSLRSEDTAVYYCARGYYGSSYAMDYWGQGTTVTVSS VL: DIQMTQSPSSLSASVGDRVTITCRASQGISNYLNWYQQKPDGAIKLLIYDASTLYSGVPSRFSGSGSGTDFTLTISSLQPEDFATYYCQQYSKLPYTFGGGTKVEIK
